From article PMC10419308, “Structural Insight into the Amino Acid Environment of the Two-Domain Laccase’s Trinuclear Copper Cluster” (International Journal of Molecular Sciences, 2023) come the findings set out here.

Substrate in data set [1]: CCn1c(=NN=c2sc3cc(S(=O)(=O)O)ccc3n2CC)sc2cc(S(=O)(=O)O)ccc21
Description: purified protein. It counts as biochemical, Streptomyces griseoflavus. The settings on record: pH 4.0, 50 mM Britton-Robinson buffer, 30 °C, co-substrate O2, table header prints unit as MM.

Substrate in data set [2]: COc1cccc(OC)c1O
The data set is described as follows: purified protein. It counts as biochemical, Streptomyces griseoflavus. Particulars: 30 °C, co-substrate O2, table header prints unit as MM.

Setting [3] is: pH 8.5, 50 mM Britton-Robinson buffer.
[4] abbreviates: pH 7.0, 50 mM Britton-Robinson buffer.
Where [5] appears, read: pH 7.5, 50 mM Britton-Robinson buffer.

B1: SgfSL (Streptomyces griseoflavus Small Laccase) (Streptomyces griseoflavus; D268N/M199G/R240H) (protein)
chain: AGAAPAGGEVRRVTMYAERLAGGQMGYGLEKGKASIPGPLIELNEGDTLHVEFENTMDVPVSLHVHGLDYEISSDGTKQNKSHVEPGGTRTYTWRTHEPGRRADGTWRAGSAGYWHYHDHVVGTEHGTGGIRNGLYGPVIVRRKGDVLPDATHTIVFNDGTINNRPAHTGPNFEATVGDRVEIVMITHGEYYHTFHMHGHHWADNRTGMLTGPDDPSQVIDNKICGPANSFGFQIIAGEGVGAGAWMYHCHVQSHSDMGMVGLFLVKKPDGTIPGYDPQEHAH
notes: pET32-Xa/LIC, E. coli BL21(DE3)/Rosetta; N-terminal thioredoxin-His tail cut off with factor Xa; homotrimer; all variants tested here carry D268N (wild-type data copied from earlier work)
As a reminder, the Km is the concentration of substrate that gives half-maximal velocity. In general, kcat refers to the maximal rate divided by the concentration of active sites. What is called kcat/Km is the turnover number divided by the Michaelis constant. Consider B1, for which, in “purified protein [1]”, the Michaelis constant (Km) worked out at 250 ± 20 µM, the kcat amounted to 38.9 ± 0.99 s⁻¹ and the kcat/Km worked out at 156000 M⁻¹ s⁻¹. In the data set “purified protein [2]” (setting [3]), the Km came out at 240 ± 30 µM, the turnover number (kcat) is 8.19 ± 0.13 s⁻¹ and the kcat/Km is 34100 M⁻¹ s⁻¹.

B2: SgfSL (Streptomyces griseoflavus Small Laccase) (Streptomyces griseoflavus; D268N/M199A) (protein)
chain: AGAAPAGGEVRRVTMYAERLAGGQMGYGLEKGKASIPGPLIELNEGDTLHVEFENTMDVPVSLHVHGLDYEISSDGTKQNKSHVEPGGTRTYTWRTHEPGRRADGTWRAGSAGYWHYHDHVVGTEHGTGGIRNGLYGPVIVRRKGDVLPDATHTIVFNDATINNRPAHTGPNFEATVGDRVEIVMITHGEYYHTFHMHGHRWADNRTGMLTGPDDPSQVIDNKICGPANSFGFQIIAGEGVGAGAWMYHCHVQSHSDMGMVGLFLVKKPDGTIPGYDPQEHAH
notes: as for B1
B2: in “purified protein [1]”, the Michaelis constant (Km) was found to be 110 ± 30 µM, the kcat stood at 21.4 ± 1.12 s⁻¹ and the catalytic efficiency (kcat/Km) is 195000 M⁻¹ s⁻¹. In “purified protein [2]” (setting [4]), the Michaelis-Menten constant (Km) was 870 ± 100 µM, the turnover number (kcat) is 0.8 ± 0.03 s⁻¹ and the catalytic efficiency (kcat/Km) is 920 M⁻¹ s⁻¹.

B3: SgfSL (Streptomyces griseoflavus Small Laccase) (Streptomyces griseoflavus; D268N/M199G) (protein)
chain: AGAAPAGGEVRRVTMYAERLAGGQMGYGLEKGKASIPGPLIELNEGDTLHVEFENTMDVPVSLHVHGLDYEISSDGTKQNKSHVEPGGTRTYTWRTHEPGRRADGTWRAGSAGYWHYHDHVVGTEHGTGGIRNGLYGPVIVRRKGDVLPDATHTIVFNDGTINNRPAHTGPNFEATVGDRVEIVMITHGEYYHTFHMHGHRWADNRTGMLTGPDDPSQVIDNKICGPANSFGFQIIAGEGVGAGAWMYHCHVQSHSDMGMVGLFLVKKPDGTIPGYDPQEHAH
notes: as for B1
As for B3, in the data set “purified protein [1]”, the Km was determined as 220 ± 30 µM, the turnover number (kcat) was determined as 37.7 ± 2.41 s⁻¹ and the kcat/Km is 171000 M⁻¹ s⁻¹. In “purified protein [2]” (setting [5]), the Km turned out to be 290 ± 20 µM, the kcat was determined as 1.88 ± 0.05 s⁻¹ and the specificity constant (kcat/Km) was 6490 M⁻¹ s⁻¹.
